According to the supplement of paper PMC10567573:

B1: FAM46D (parent)
chain: FQEAMTHLQHKLICTRKPEEIRGG

Variants of: B1
Assay: protein stability index of a GFP-peptide fusion (GPS, HEK-293T) (PSI 1-6); higher = more stable
Conditions: c terminus: a fixed tail appended
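Also: lentivirally expressed fusions sorted by FACS into six bins by GFP to DsRed ratio, PSI derived from sequencing read proportions per bin multiplied by bin number.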

Row | Variant | protein stability index
1 | K11T | 2.72
2 | K11I | 2.03
3 | K11W | 1.58
4 | K11N | 2.17
5 | K11Q | 2.41
6 | K11G | 2.38
7 | K11C | 2.89
8 | K11V | 1.86
9 | K11L | 2.79
10 | K11S | 3.15
11 | K11E | 3.88
12 | K11H | 2.44
13 | K11D | 2.88
14 | K11R | 2.83
15 | K11F | 2.16
16 | K11Y | 1.66
17 | K11A | 2.54
18 | K11M | 1.57
19 | K11P | 2.44
20 | E19A | 2.79
21 | E19L | 2.26
22 | E19I | 1.98
23 | E19P | 3.13
24 | E19H | 2.3

Row | Variant | protein stability index
25 | E19V | 2.01
26 | E19D | 2.55
27 | E19C | 1.97
28 | E19G | 1.83
29 | E19R | 1.42
30 | E19T | 2.28
31 | E19F | 2.09
32 | E19Q | 2.23
33 | E19N | 2.53
34 | E19K | 2.67
35 | E19S | 2.76
36 | E19M | 1.58
37 | E19Y | 2.15
38 | L12E | 3.27
39 | L12W | 1.27
40 | L12V | 3.06
41 | L12T | 3.99
42 | L12A | 3.49
43 | L12R | 2.71
44 | L12G | 2.72
45 | L12D | 2.98
46 | L12S | 3.4
47 | L12H | 3.44
48 | L12M | 3.84

Row | Variant | protein stability index
49 | L12P | 2.8
50 | L12F | 2.38
51 | L12Y | 2.31
52 | L12C | 2.84
53 | L12I | 2.78
54 | L12N | 4.18
55 | L12K | 2.9
56 | L12Q | 3.87
57 | R22C | 2.41
58 | R22D | 3.3
59 | R22F | 2.34
60 | R22A | 2.85
61 | R22E | 3.29
62 | C14D | 3.17
63 | C14E | 3.36
64 | C14W | 1.68
65 | C14M | 2.38
66 | C14S | 2.87
67 | C14L | 2.55
68 | C14R | 3.28
69 | C14Q | 2.51
70 | C14Y | 2.45
71 | C14I | 2.21
72 | C14V | 2.96

Row | Variant | protein stability index
73 | C14P | 2.33
74 | C14N | 2.71
75 | C14H | 2.82
76 | C14K | 2.6
77 | C14T | 2.7
78 | C14G | 2.63
79 | C14F | 2.58
80 | K17G | 2.77
81 | K17F | 2.03
82 | K17M | 2.87
83 | K17Y | 1.85
84 | K17Q | 2.33
85 | K17E | 3.03
86 | K17S | 2.75
87 | K17V | 2.64
88 | K17H | 2.38
89 | K17N | 2.9
90 | K17C | 1.91
91 | K17I | 2.68
92 | K17D | 3.46
93 | K17A | 2.58
94 | K17R | 2.02
95 | K17W | 2.03
96 | K17P | 2.52

Row | Variant | protein stability index
97 | K17T | 2.65
98 | K17L | 1.66
99 | H7T | 2.77
100 | H7L | 1.67
101 | H7K | 2.61
102 | H7E | 3.86
103 | H7W | 1.95
104 | H7D | 3.54
105 | H7A | 2.44
106 | H7Y | 3.71
107 | H7M | 1.11
108 | H7P | 3.4
109 | H7Q | 2.93
110 | H7I | 1.59
111 | H7N | 3.19
112 | H7G | 2.71
113 | H7S | 3.3
114 | H7R | 2.66
115 | H7V | 2.48
116 | H7C | 2.85
117 | H10E | 3.79
118 | H10S | 2.5
119 | H10Y | 2.11
120 | H10P | 3.16

Row | Variant | protein stability index
121 | H10R | 2.71
122 | H10G | 2.67
123 | H10F | 1.73
124 | H10Q | 3.05
125 | H10L | 2.24
126 | H10C | 2.72
127 | H10M | 1.44
128 | H10D | 3.14
129 | H10N | 2.93
130 | H10V | 1.92
131 | H10T | 3.52
132 | H10K | 2.94
133 | T6D | 3.41
134 | T6K | 1.86
135 | T6E | 3.38
136 | T6I | 2.15
137 | T6Q | 2.13
138 | T6F | 2.11
139 | T6N | 2.11
140 | T6S | 3.2
141 | T6P | 3.04
142 | T6H | 2.22
143 | T6L | 2.04
144 | T6M | 1.66

Row | Variant | protein stability index
145 | T6A | 2
146 | T6W | 1.49
147 | T6R | 2.69
148 | T6Y | 1.54
149 | T6V | 2.86
150 | P18M | 2.24
151 | P18Q | 2.19
152 | P18L | 2.11
153 | P18K | 1.82
154 | P18T | 2.85
155 | P18A | 2.72
156 | P18G | 2.48
157 | P18C | 1.3
158 | P18N | 3.04
159 | P18R | 2.09
160 | P18Y | 2.14
161 | P18E | 3.41
162 | P18F | 2.61
163 | P18H | 2.33
164 | P18I | 2
165 | P18D | 2.7
166 | P18S | 2.43
167 | P18V | 2.54
168 | P18W | 2.35

Row | Variant | protein stability index
169 | I13D | 2.57
170 | I13N | 3.33
171 | I13G | 2.67
172 | I13Q | 3.58
173 | I13C | 3.07
174 | I13T | 2.52
175 | I13E | 3.67
176 | I13R | 2.72
177 | I13P | 2.95
178 | I13M | 2.61
179 | I13F | 1.73
180 | I13L | 2.13
181 | I13S | 2.94
182 | I13Y | 3.58
183 | I13V | 2.76
184 | I13K | 3.67
185 | I13H | 2.54
186 | I13A | 2.76
187 | E3V | 2.08
188 | E3S | 1.91
189 | E3R | 1.82
190 | E3T | 2.54
191 | E3Y | 2.3
192 | M5N | 3.53

Row | Variant | protein stability index
193 | M5T | 3.12
194 | M5L | 1.64
195 | M5D | 3.44
196 | M5C | 3.35
197 | M5F | 1.93
198 | M5A | 3.21
199 | M5R | 3.13
200 | M5G | 3.54
201 | M5P | 3.37
202 | M5S | 3.67
203 | M5I | 2.22
204 | M5V | 2.97
205 | M5Y | 2.16
206 | M5W | 2.1
207 | M5H | 3.79
208 | M5K | 2.94
209 | M5E | 4.43
210 | R16D | 2.68
211 | R16G | 2.6
212 | R16Q | 3.16
213 | R16C | 1.84
214 | R16Y | 3.21
215 | R16S | 2.75
216 | R16P | 2.87

Row | Variant | protein stability index
217 | R16W | 1.67
218 | R16H | 2.6
219 | R16A | 3.35
220 | R16M | 2.21
221 | R16K | 2.09
222 | R16E | 2.57
223 | R16T | 2.56
224 | R16L | 2.55
225 | R16I | 2.08
226 | R16N | 3.02
227 | R16V | 2.77
228 | R16F | 2.62
229 | L8I | 2.88
230 | L8Q | 3.68
231 | L8R | 3.31
232 | L8D | 4.31
233 | L8N | 3.76
234 | L8H | 3.57
235 | L8V | 2.07
236 | L8Y | 2.34
237 | L8P | 2.99
238 | L8T | 3.35
239 | L8F | 2.42
240 | L8M | 3.24

Row | Variant | protein stability index
241 | L8C | 3.23
242 | L8S | 3.62
243 | L8E | 3.69
244 | L8K | 2.29
245 | L8G | 3.09
246 | L8W | 1.89
247 | L8A | 3.91
248 | Q9M | 2.21
249 | Q9A | 2.25
250 | Q9H | 2.67
251 | Q9T | 2.6
252 | Q9G | 2.09
253 | Q9R | 2.7
254 | Q9Y | 2.3
255 | Q9K | 2.38
256 | Q9C | 1.89
257 | Q9D | 2.89
258 | Q9F | 2.61
259 | Q9W | 1.16
260 | Q9N | 1.79
261 | Q9E | 3.36
262 | T15W | 2.31
263 | T15V | 2.94
264 | T15L | 1.77

Row | Variant | protein stability index
265 | T15P | 3.04
266 | T15H | 2.22
267 | T15E | 3.06
268 | T15Y | 2.17
269 | T15G | 3.56
270 | T15A | 3.06
271 | T15N | 2.79
272 | T15C | 2.42
273 | T15I | 2.21
274 | T15Q | 3.31
275 | T15K | 3.42
276 | T15S | 2.92
277 | T15M | 3.17
278 | T15D | 3.01
279 | I21Q | 3.05
280 | I21K | 3.72
281 | I21N | 3.87
282 | I21M | 2.9
283 | I21W | 2.07
284 | I21H | 3.4
285 | I21Y | 2.21
286 | I21G | 2.69
287 | I21D | 3.26
288 | I21L | 2.34

Row | Variant | protein stability index
289 | I21P | 3.36
290 | I21R | 3.93
291 | I21V | 2.43
292 | I21A | 3.27
293 | I21F | 2.62
294 | I21C | 2.73
295 | I21T | 3.56
296 | I21S | 3.74
297 | I21E | 2.98
298 | A4I | 2.42
299 | A4W | 1.58
300 | A4C | 2.61
301 | A4R | 2.75
302 | A4K | 3.51
303 | A4S | 2.99
304 | A4G | 2.74
305 | A4F | 1.82
306 | A4N | 3.36
307 | A4H | 2.95
308 | A4P | 2.62
309 | A4Y | 2
310 | A4T | 3.29
311 | A4E | 3.28
312 | A4D | 2.8

Row | Variant | protein stability index
313 | A4V | 2.63
314 | A4Q | 2.98
315 | A4M | 3.38
316 | E20L | 2.05
317 | E20P | 2.39
318 | E20M | 2.03
319 | E20Y | 2.34
320 | E20S | 2.33
321 | E20F | 2.38
322 | E20K | 3.26
323 | E20V | 2.38
324 | E20R | 2.19
325 | E20T | 2.5
326 | E20Q | 2.33
327 | E20G | 1.99
328 | E20H | 1.89
329 | E20A | 2.15
330 | E20W | 2.08
331 | E20N | 2.64
332 | E20D | 2.69
333 | E20I | 1.77
334 | E20C | 2.3
